Measurements taken from patent US20240352099A1 (JULIUS MAXIMILIANS UNIVERSIT T W RZBURG, published 2024).

B1: monoclonal antibody 5E1 directed against Tef1 of Candida albicans, produced by the hybridoma cell line DSM ACC 3368 (antibody)
heavy: EVKLVESGGGLVKPGGSLKLSCAASGFTFSSYAMSWVRQTPEKRLEWVASISSGGSTYYPDSVKGRFTISRDNARNILYLQMSSLRSEDTAMYYCARGYDGYDYWGQGTTLTVSSESQSFPNVFPLVSCESPLSDKNLVAMGCLARDFLPSTISFTWNYQNNTEVIQGIRTFPTLRTGGKYLATSQVLLSPKSILEGSDEYLVCKIHYGGKNRDLHVPIPAVAEMNPNVNVFVPPRDGFSGPAPRKSKLICEATNFTPKPITVSWLKDGKLVESGFTTDPVTIENKGSTPQTYKVISTLTISEIDWLNLNVYTCRVDHRGLTFLKNVSSTCAASPSTDILTFTIPPSFADIFLSKSANLTCLVSNLATYETLNISWASQSGEPLETKIKIMESHPNGTFSAKGVASVCVEDWNNRKEFVCTVTHRDLPSPQKKFISKPNEVHKHPPAVYLLPPAREQLNLRESATVTCLVKGFSPADISVQWLQRGQLLPQEKYVTSAPMPEPGAPGFYFTHSILTVTEEEWNSGETYTCVVGHEALPHLVTERTVDKSTGKPTLYNVSLIMSDTGGTCY
light: not shown
notes: Mouse IgM, kappa from hybridoma; also called mAb 5E1; anti-Tef1 mAb 5E1
B2: monoclonal antibody 8C3 directed against Pra1 of Candida albicans, produced by the hybridoma cell line DSM ACC 3369 (antibody, mouse IgG1, kappa, V domains shown)
VH: EVQLVESGGDLVKPGGSLKLSCAASGFTFSTYGMSWVRQTPDKRLEWVATISSGGSYTYYPDSVKGRFTISRDNVKNTLYLQMSSLKSEDTAMYYCARQGLDDNYAEWYFDVWGAGTTVTVSS
VL: DILLTQSPATLSVTPGETVSLSCRASQSIYKNLHWYQQKSHRSPRLLIKYASDSISGIPSRFTGSGSGTDYTLSINSVKPEDEGKYYCLQGFSTPWTFGGGTKLEIKR
notes: Mouse IgG1, kappa from hybridoma; also called mAb 8C3; anti-Pra1 mAb 8C3

What was measured:
[1] = biological target: T1, Tef1 on C. albicans strain SC5314 hyphae (Candida albicans, UniProt P0CY35 2-458); experiment: flow cytometry on C. albicans
T1 construct: whole, on cells; The stained target is the whole fungal cell; also called C. albicans hyphae
T1 sequence (looked up): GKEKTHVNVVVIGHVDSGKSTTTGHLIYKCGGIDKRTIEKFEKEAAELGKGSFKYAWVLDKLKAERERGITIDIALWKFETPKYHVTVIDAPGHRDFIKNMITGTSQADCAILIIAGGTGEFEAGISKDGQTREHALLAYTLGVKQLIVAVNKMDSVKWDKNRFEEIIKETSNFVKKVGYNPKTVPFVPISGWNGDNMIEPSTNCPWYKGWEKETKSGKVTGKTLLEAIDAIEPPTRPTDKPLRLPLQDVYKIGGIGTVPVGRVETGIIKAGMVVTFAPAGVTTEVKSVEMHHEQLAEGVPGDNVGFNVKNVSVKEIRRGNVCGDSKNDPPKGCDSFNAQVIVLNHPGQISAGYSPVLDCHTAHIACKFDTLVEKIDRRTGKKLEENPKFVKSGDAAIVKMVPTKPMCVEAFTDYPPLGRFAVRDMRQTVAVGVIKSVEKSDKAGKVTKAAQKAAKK

[2] = biological target: T2, Pra1 on C. albicans strain SC5314 hyphae (Candida albicans, UniProt P87020 16-299); experiment: flow cytometry and confocal microscopy, summary
T2 construct: whole, on cells; The stained target is the whole fungal cell; also called C. albicans hyphae
T2 sequence (looked up): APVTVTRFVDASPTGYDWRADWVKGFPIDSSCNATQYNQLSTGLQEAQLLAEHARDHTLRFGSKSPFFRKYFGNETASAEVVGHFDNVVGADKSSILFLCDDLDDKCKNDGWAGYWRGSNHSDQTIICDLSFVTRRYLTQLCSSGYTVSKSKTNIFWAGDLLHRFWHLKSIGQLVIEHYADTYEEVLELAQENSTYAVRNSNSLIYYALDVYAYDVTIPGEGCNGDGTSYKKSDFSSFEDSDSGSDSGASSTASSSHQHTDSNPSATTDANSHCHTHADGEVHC

Binder	binding result [1]	binding result [2]
B1	binds	–
B2	–	binds
